# Results as given in publication PMC11257990.
# Several values for one entry are separate records, joined by “and”; a condition that tells them apart may be missing. Equal values may be shown once.
# Biological target: CUL9 (endogenous, U2OS) (human (endogenous in U2OS)) (UniProt Q8IWT3)
# Experiment: sucrose gradient fractionation; 1 mg U2OS lysate on a continuous 5–40% sucrose gradient, 160,000g, 16 h, 4 °C; fractions immunoblotted for CUL9; purified hexameric CUL9–RBX1 and dimeric CUL9^(R125A Y152A)–RBX1 run for comparison
# Conditions: remark: other sources report otherwise
substance,measurement,value
"CUL9 (endogenous, U2OS), Q8IWT3 1-2517",stoichiometry N,6 and 2
